Reference: a protein production outcome set (Wang et al. 2014)

experiment: label from the status in PepcDB records

Sequence | protein production
MAKMIILPKLVQKSVVSPKQTSQERVVTSTFSPPKPAGENISVQRRCELSEYHASGHVISHLPPPFAVAKPTPTTSLLPQPVRLINADAEDASCSSTPSWRIKKSLTCVCFNRKRAYERICSNLTPLQEERLKRLRKRMKNYYDASRPDHQDALRALWSATYPDEKLQDLISDQWKNMGWQGKDPSTDFRGAGFISLENLLFFAKTFSTSFQRLLNKQGGKRAAWEYPFAVAGVNITFMIMQMLDLEASKPRSFIRLVFLQMLSESEWAFDLLYCVAFVVMDKQWLDKNATYMEFNDVLRCTRGQLERELMMDDVFRIEDMPSFSLLS | failed
MAKNDKINFSTPSGFPEFLPSEKRLELYLLDTIRRVYESYGFTPIETPAVERLEVLQAKGNQGDNIIYGLEPILPPNRQAEKDKSGDTGSEARALKFDQTVPLAAYIARHLNDLTFPFARYQMDVVFRGERAKDGRFRQFRQCDIDVVGREKLSLLYDAQMPAIITEIFEAVNIGDFVIRINNRKVLTGFFQSLNISETQIKSCISIIDNLEKIGEAKVKLELEKEGINPEQTQKIIDFVKIDGSVDDVLDKLKHLSQTLPESEQFNLGVSELETVITGVRNLGVPDKRFCIDLAIARGLNYYTGTVYETTLIGHEALGSICSGGRYEELVGTFIGEKMPGVGISIGLTRLISRLLKAGILNTLPPTPAQVVVVNMQDELMPTYLKVSQQLRQAGLNVITNFEKRQLGKQFQAADKQGIRFCVIIGADEAAAQKSSLKDLQSGEQVEVALADLAEEIKRRLT | not failed
MAKNQWNELLLEQVRQLPMASSKEHVQLRLNLLIVEASKQKKTIPTEFELIFQAYQLSRSGKLIDSISVFFDAINFSQQNQQEFLICFCHYNIGTLYGMLGNYFYAQKFLAKAEKMQQFCDGYITGIIKNNIGDIFRQIGNFNEALIYLTQAAELLSQHGPKTAAALSYFNIAEIKAKQFLFTEANELLENLYQDIKNEPRYLGFYYKIKAEIASHSGEFEQADKLHLLSIENMQISEHDYYYAEMILEYCHFLTSCLQYKKLDQFIALGLAVAKKIESDKLIDGFNDIILLRIKDIDDINIREKHYQTLTSSLLNSRRELLKREGDYLQQLYRLNVAKLNLSTMKSLSDNLAVINKVGHYINTSSDIKNALPQIQQDLASLFQTDTLALGFYNSEQDQITIHYLDNNLPAQTPYITDCKSEATYMSYCIKSNSAFYFNHMNSEQKVAMLGDRCDSKVQFKSAMFSPITINGEVKGVFTIQARESYQYQTFHFELFSQLISYISIALENQYNRQQLLHLSQTDHLTQIWNRKSLEAHFNQLKQQQNQEYTGIMIDIDHYKEYNDTYGHIAGDEVLIQVSRLIKQGFHSLETQVYRYGGDEFFVLIPSIKPEKIRQKLDKLLIEVKKLLIPHKASTCSCYLSISVGIGYNKDPENQLSLNSLVNTADRALYQAKENGRNCYFELAHIKETMY | failed
MAKNTLSFVCQNCGAAYNRWQGKCESCGEWNTLAEEDTSGSVPVSIRSKRKGRTFALESLAGKSPDAPRLSSGMTELDRVTGGGFVRGSVLLVGGDPGIGKSTLLTQATSLMARAGHRIVYISGEEAIAQVRLRAERLGLSDAPVQLAAETSVEDIVSTLSEGAVPRLIVIDSIQTMWTDTVESAPGTVTQVRASAQALIRFAKKTGAAIILVGHVTKDGQIAGPRVVEHMVDAVMSFEGEGSQQFRILRAVKNRFGPTDEIGVFEMTGLGLREVTNPSELFLSERDLGTPGTAVFAGIEGTRPVLVELQALVAPTSLGTPRRAVVGWDPSRLSMVLAVLEAHCGVKLSGHDVYLNVAGGLRIHEPAADLAAAAALVSSLVNAQLPTDAVYFGEISLSGVVRPVAQTPARLKEAAKLGFQRAVLPESARGEAGGDAGLSLNAVNSLTTLVAEIAARGSRRGESGGSAEKNATPARFRRGEGLEHHHHHH | failed
MAKNYDQLAKTIIKDVGGKDNVNSVVHCATRLRFKLKDEKKADDDALKNTDGVVTVVKAGGQYQVVIGNEVADVYDAVLKEGGFSGGGEVPDDYSEDDNSSFVDKAVALISGIFTDILAPLSAGGIIKGLVVLAAAMGWLSTSSGAYQILYAIGDSIFYFLPIFLGVTAARRFHMNQFIGLAIGATLTYPTMVQLAASKTVLGTLFAGTPFASQIHTTFFGIPVITMNYTSTVLPVLFAVWFASIIEHWSKKWIPSVVQMFLVPVVTMIITLPIAFIVIGPVMTWVGNAIGAVMSGIYHFSPIIAGLLLGGLWQVLVIFGVHWGIVAVTTADLAALGYDPILGMTCMVCYAQIGVVLAIIKQTKDKKLKENATGAFFSGLFGVTEPAIYGITLPRKRPFVLSCIAGAVSGAIIGAFHSVLYILPSMGFFAIPAYINPKGGSMTQIIGVIIAGVVAFIVGFALQMLFGKKSVDAKYDKKQTEKVEVNETLQTTPDVATATLASPENGQIMPLSEVKDDVFSSGAMGKGIAIEPSDGVLHAPADGKIIMTFKTGHAIGMKTKNGAEILMHIGMDTANLQGKGFDTLVEKDQKVKAGDPLIKFDIDLIKKAGYPVTTPMVVTNSQDFDDIKQIVKGEVKVGQAVLELEAPEAKDVTTSVNGQVQLN | failed
MAKPGFRLALFATLLALIVVLLGAYTRLTHAGLGCPDWPGCYGFISVPKGEAQLAHAELHFPDTPVEAHKGWNEMIHRYFAGTLGLLIVLLAARAWTHRRHPGQPLKLPLFLLAVVFAQAAFGMWTVTLKLWPQVVTAHLLGGFATLSLLFLLTLRLSGVLPALIVPRRLQYWATAGLVLVIGQIALGGWVSSNYAAVACIDLPTCHGQWWPNMDFANGFHLTQHIGPNYLGGQLDSDARTAIHMTHRVGAVLVTLVLLGLAWQLRQTGMTRLAGLVLVALGAQVSLGLSNVFFHLPLPVAVAHNAGGAALLLTLVLVNYHARTSLVRARDRLPLGWRLSPRKQMAGPITIKGEMPWRL | failed
MAKRGREAKSAERTRQLAESEARLRLMADAAPFPLAMNRLAGGELIYANARAEELFGARLRPDRPLRVQDFYAEPAEREKVARALLEGRAVRDREVRLRDAGGRPFWALVSCELVQSGETWYVINGVNDISERKRLEQSLQDANAALRSHLREIELLQQGLREQALRDPLTGLFNRRHLDDILPRVLAHMLALHREVAVLMVDADHFKRINDTYGHRCGDAVLTALGACLSDHFRSGDIVCRYGGEEFFVLLPGATLEAAYAKAEGLRRAVGERPMEALGHSLAVTLSIGLALCPLHGSDAESVVRAADEALYQAKRQGRDRVCVAARLQSLLS | failed
MAKSHPRWRLAKKVLTWLFFIAVVVLLVVYAKKVDWGDVWTVIRDYNRTALLSAVGLVIVSYLLYGCYDLLGRLYCGHKLAKRQVMLVSFVCYAFNLTLSTWVGGIGMRYRLYSRLGLPGSTITRIFSLSITTNWLGYILLGGIIFTFGIVQLPDHWYIDAGTLRILGIVLLLIIAVYLWFCAFAKRRHMTIKGQKLVLPSWKFALAQMAISSANWMAMGAIIWLLMGQDVNYFFVLGVLLVSSIAGVIVHIPAGIGVLEAVFLALLAGEHTSQGTIIAALLAYRVLYYFIPLLLALVCYLILESRAKKLRAKNERAMAK | failed
MAKSPKFMVFHLRELIYTLVFILLGIILIISLVIMFYNRGNKQEKEENTGVYEPGVYTSCVTLNGNPMDVKVTLDDNHINSITVDNVSNTITTMYPLVEPAFNDIANQIVTNQSLENIKFDDNSKYTYTILYNAILDTIEKGKVGE | failed
MAKSSVANIFTFSNLSCGLLSLIMTLAASSTNNEYYKLACLFILIAGIIDRYDGRVARALNVSSELGKELDSLADLVSFGVAPSILAYHLCNFSSNFNFLGYIFVLIFPIAGAYRLARYNLSTFDGVFRGIPITLAGMFMALYSLIYLLLNTQPNAVLTIVIMLILSYLMVSNLKLKKL | not failed
MAKTGDPARAVTPPAIGTLDFALDRSSPVPLYYQLARQLEAAIEHGVLAPGNLLGNEVDLSVRLGLSRPTVRQAIQSLVDKGLLVRRRGVGTQVVHSQVRRPLELSSLYDDLEAAGQDPGTRVVRNEDVPATAEVAAALGVTEGTGVTVLERLRLTHGQPVAMLCNHLPAGLLELDDARLESTGLYRMMRARGITLHSARQTVGARIASREEAERLGEREGAALLTMRRIAYDDTGRPVEYGTHVYRASRYAFDFQLLVRN | not failed
MAKTPAAAPTATDPVAIAGPAPETIAVHGHRIACDGVGGALGHPRVWLEMGAAGFVDCPYCDRRFVAATDAGHDEHLAPGVYVDAAGHLEHHHHHH | failed
MAKVTVILTSYNKPNTVGAAIESVLSQSFQDWELWIMDDASNEETQQVIDSYMLYPNVYYYNSQVKDEERHKSTRYATLINEAISRSTGDYLCYLTDDNYYLPERLQKMVQYLERYPSVDVVYSKQLVRTVDNQLITQAERIRPTKGTIRYAENIVDHCSVMHRRSLAEKVYETYGSYWNDDPICWHNGDAFFWNRLSAFALFYPINEVLDVCLKSPTSFQALNAFLPEYLPSGTLVKGLGADVYLIEDNHRRAITPTMFQQLHYREENVVHIPDPVLFKYKEGPAIDEHIWEQGKLFPNHRLIKASQEPHIYYVENHRKRHILTHKEFRLYKFRASEVVEVSRSFLDSIPTGPPISAHVNNQHPLPEGLLVRCGFKFYLSGNNRLYPIKSRVMKKLNLQMKNAVFLDSRAIGRYEQGETIEWKTNKCQPRFNTSSLEHHHHHH | failed
MAKWRVAAILSGALLAADARAEALRMLLTQIPGIIEQAPDGASMRGVGIDLMKEVGRRAGVELRFEAYPQARARLLVERQRDACLPVAHLPEQAANFKWSAPLLQMRLVLLARGDDGRQLRSLEQAGGLRVGAMRGTMAAARLKERGVAVEESADYLSGLEKLRLGRLDLWAMLDVGVASLARRLEMPPPRVAWVMDTLDVSFACNRQVDDALIARLDGAIAAMRADGSMARFDLR | failed
MALASSEALVNLVEYARWNQCGVSGGPGTKEFSAEGTEAAKGGRRKAAGGRAGRGGAGRERGGTRDPAMGPGARLALLALLALGGDPAAATGREDTFSALTSVARALAPERRLLGTLRRYLRGEEARLRDLTRFYDKVLSLHEDLKIPVVNPLLAFTLIKRLQSDWRNVVHSLEATENIRALKDGYEKVEQDLPAFEDLEGAARALMRLQDVYMLNVKGLARGVFQRVTGSSITDLYSPRQLFSLTADDCFQVGKVAYDTGDYYHAIPWLEEAVSLFRRAHGEWKTEDEASLEDALDYLAFACFQVGNVSCALSLSREFLVYSPDNKRMARNVLKYERLLAENGHQMAAETAIQRPNVPHLQTRDTYEGLCQTLGSQPTHYQIPSLYCSYETNSSPYLLLQPARKEVVHLRPLIALYHDFVSDEEAQKIRELAEPWLQRSVVASGEKQLQVEYRISKSAWLKDTVDPMLVTLDHRIAALTGLDIQPPYAEYLQVVNYGIGGHYEPHFDHATSPSSPLYRMKSGNRVATFMIYLSSVEAGGATAFIYGNFSVPVVKLSSVEAGGATAFIYGNFSVPVVKLHVFTVPMDGGPWCTCGHWVANKWIHEYGQEFRRPCSTNPED | failed
MALAVTSSSTAISGSSFSRSGASSESKALQICSIRLSDRTHLSQRRYSMKPLNAESHSRSESWVTRASTLIAPEVEEKGGEVEDFEQLAKKLEDASPLEIMDKALERFGDQIAIAFSGAEDVALIEYARLTGKPFRVFSLDTGRLNPETYRLFDAVEKQYGIRIEYMFPDAVEVQALVRNKGLFSFYEDGHQECCRVRKVRPLRRALKGLKAWITGQRKDQSPGTRSEIPIVQVDPVFEGLDGGVGSLVKWNPLANVEGADVWNFLRTMDVPVNALHAQGYVSIGCEPCTRPVLPGQHEREGRWWWEDAKAKECGLHKGNIKEEDGAADSKPAAVQEIFESNNVVALSKGGVENLLKLENRKEAWLVVLYAPWCPFCQAMEASYIELAEKLAGKGVKVAKFRADGEQKEFAKQELQLGSFPTILLFPKRAPRAIKYPSEHRDVDSLMSFVNLLR | failed
